Reference: patent publication US20240151728A1 (KOREA INSTITUTE OF SCIENCE AND TECHNOLOGY, published 2024)
Each block holds one binder with its values, some of them ahead of it.

How the values were obtained:
[1] = target: T1, hMSLN recombinant protein (human mesothelin) (human, UniProt Q13421 296-598, limits assumed); assay: SPR, BIAcore T200; hMSLN amine-coupled on CM5 chip, scFv injected; 1:1 Langmuir model; mean of three experiments
T1 construct: Amine-coupled to a CM5 chip for SPR; also called recombinant mesothelin (MSLN); biotinylated hMSLN recombinant protein
T1 sequence (Q13421 other isoform, or with tags, fused parts or gaps limits assumed): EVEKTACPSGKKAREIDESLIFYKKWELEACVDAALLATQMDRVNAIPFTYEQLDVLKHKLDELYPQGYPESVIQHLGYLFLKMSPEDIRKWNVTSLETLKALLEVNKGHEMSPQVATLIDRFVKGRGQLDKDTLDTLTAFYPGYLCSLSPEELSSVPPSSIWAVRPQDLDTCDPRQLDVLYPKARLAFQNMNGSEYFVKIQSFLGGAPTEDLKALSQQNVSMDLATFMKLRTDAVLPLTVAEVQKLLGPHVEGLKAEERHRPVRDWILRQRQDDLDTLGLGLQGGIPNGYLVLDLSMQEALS
Protocol: (§1) To measure the affinity of the selected variants, surface plasmon resonance (SPR) was performed by using a BIAcore T200 device. For analysis, hMSLN was immobilized on a CM5 sensor chip by using an amine coupling method. Experiments were performed by using HBS-EP buffer, and diluted samples of each scFv variant were injected at a rate of 30 μl/min for 120 seconds and dissociated for 5 minutes. After the first experiment, 5 mM NaOH and 0.5 M arginine at pH 8.0 were sequentially injected for 30 seconds to regenerate the chip. For each scFv variant, three separate experiments were averaged to determine a dissociation constant, and each dissociation constant was determined by using a 1:1 Langmuir model in BIAevaluation 3.2 software.

[2] = target: T1, hMSLN recombinant protein (human …); assay: ELISA: 100 ng purified scFv coated per well, biotinylated hMSLN titrated, streptavidin-HRP, A450; the concentration varied is that of hMSLN
Protocol: (§2) Specifically, each well of the 96-well immune plate was coated with 100 ng of the scFv variants produced as recombinant proteins at 4° C. for 16 hours. After adding 100 μl of pH 7.4 PBS supplemented with 3% bovine serum albumin (BSA) to each well, the cells were incubated at room temperature for 1 hour, and the plate was washed three times with 350 μl of PBS-T. The biotinylated hMSLN recombinant protein was diluted to 1 μM, 200 nM, 40 nM, 8 nM, 1.6 nM, and 0.32 nM in the pH 7.4 PBS, and reacted at room temperature for 1 hour with each of the coated scFv antibodies. Afterwards, the cells were washed three times with 350 μl of PBS-T per well. Then, 50 μl of HRP-conjugated streptavidin diluted at 1:15,000 in the pH 7.4 PBS was added to the cells followed by incubation of the cells at room temperature for 1 hour, and washing three times with 350 μl of PBS-T. After adding 50 μl of TMB, the cells were incubated at room temperature for 15 minutes, the reaction was terminated by adding 50 μl of 2 M H₂SO₄, and the absorbance at 450 nm was measured.

[3] = target: T2, hMSLN recombinant protein (human mesothelin) (human, UniProt Q13421 296-598); assay: SPR, BIAcore T200; hMSLN amine-coupled on CM5 chip, scFv injected; 1:1 Langmuir model; mean of three experiments
T2 sequence (Q13421 other isoform, or with tags, fused parts or gaps): as the sequence (Q13421 other isoform, or with tags, fused parts or gaps limits assumed) above
Protocol: as §1

[4] = target: T2, hMSLN recombinant protein (human …); assay: ELISA: 100 ng purified scFv coated per well, biotinylated hMSLN titrated, streptavidin-HRP, A450; the concentration varied is that of hMSLN
Protocol: as §2

- Kd [1]: 11.2 nM
- EC50 (read off the curve) [2]: ~40 nM
B1: wild-type M5 scFv (DFDY) (scFv)
scFv: QVQLVQSGAEVEKPGASVKVSCKASGYTFTDYYMHWVRQAPGQGLEWMGWINPNSGGTNYAQKFQGRVTMTRDTSISTAYMELSRLRSDDTAVYYCASGWDFDYWGQGTLVTVSSGGGGSGGGGSGGGGSGGGGSDIVMTQSPSSLSASVGDRVTITCRASQSIRYYLSWYQQKPGKAPKLLIYTASILQNGVPSRFSGSGSGTDFTLTISSLQPEDFATYYCLQTYTTPDFGPGTKVEIK
notes: Recombinant protein made in E. coli BL21(DE3) and purified; also called WT M5 scFv; WT DFDY

- Kd [3]: 121 nM
B2: M5 scFv variant DVAY (scFv)
chain: QVQLVQSGAEVEKPGASVKVSCKASGYTFTDYYMHWVRQAPGQGLEWMGWINPNSGGTNYAQKFQGRVTMTRDTSISTAYMELSRLRSDDTAVYYCASGWDVAYWGQGTLVTVSSGGGGSGGGGSGGGGSGGGGSDIVMTQSPSSLSASVGDRVTITCRASQSIRYYLSWYQQKPGKAPKLLIYTASILQNGVPSRFSGSGSGTDFTLTISSLQPEDFATYYCLQTYTTPDFGPGTKVEIK

- EC50 (read off the curve) [4]: ~40 nM
B3: DGAD (scFv)
chain: QVQLVQSGAEVEKPGASVKVSCKASGYTFTDYYMHWVRQAPGQGLEWMGWINPNSGGTNYAQKFQGRVTMTRDTSISTAYMELSRLRSDDTAVYYCASGWDGADWGQGTLVTVSSGGGGSGGGGSGGGGSGGGGSDIVMTQSPSSLSASVGDRVTITCRASQSIRYYLSWYQQKPGKAPKLLIYTASILQNGVPSRFSGSGSGTDFTLTISSLQPEDFATYYCLQTYTTPDFGPGTKVEIK
